Source: paper PMC4451422, “Catch me if you can: a biotinylated proteoliposome affinity assay for the investigation of assembly of the MexA-MexB-OprM efflux pump from Pseudomonas aeruginosa” (Frontiers in Microbiology, 2015)

T1: MexB (Pseudomonas aeruginosa, UniProt P52002 1-1046)
T1 construct: MexB, RND inner membrane transporter of the MexA-MexB-OprM efflux pump, Pseudomonas aeruginosa; Purified by the protocol of Mokhonov et al., 2005 with minor modifications; also called MexB alone; RND pump
T1 sequence: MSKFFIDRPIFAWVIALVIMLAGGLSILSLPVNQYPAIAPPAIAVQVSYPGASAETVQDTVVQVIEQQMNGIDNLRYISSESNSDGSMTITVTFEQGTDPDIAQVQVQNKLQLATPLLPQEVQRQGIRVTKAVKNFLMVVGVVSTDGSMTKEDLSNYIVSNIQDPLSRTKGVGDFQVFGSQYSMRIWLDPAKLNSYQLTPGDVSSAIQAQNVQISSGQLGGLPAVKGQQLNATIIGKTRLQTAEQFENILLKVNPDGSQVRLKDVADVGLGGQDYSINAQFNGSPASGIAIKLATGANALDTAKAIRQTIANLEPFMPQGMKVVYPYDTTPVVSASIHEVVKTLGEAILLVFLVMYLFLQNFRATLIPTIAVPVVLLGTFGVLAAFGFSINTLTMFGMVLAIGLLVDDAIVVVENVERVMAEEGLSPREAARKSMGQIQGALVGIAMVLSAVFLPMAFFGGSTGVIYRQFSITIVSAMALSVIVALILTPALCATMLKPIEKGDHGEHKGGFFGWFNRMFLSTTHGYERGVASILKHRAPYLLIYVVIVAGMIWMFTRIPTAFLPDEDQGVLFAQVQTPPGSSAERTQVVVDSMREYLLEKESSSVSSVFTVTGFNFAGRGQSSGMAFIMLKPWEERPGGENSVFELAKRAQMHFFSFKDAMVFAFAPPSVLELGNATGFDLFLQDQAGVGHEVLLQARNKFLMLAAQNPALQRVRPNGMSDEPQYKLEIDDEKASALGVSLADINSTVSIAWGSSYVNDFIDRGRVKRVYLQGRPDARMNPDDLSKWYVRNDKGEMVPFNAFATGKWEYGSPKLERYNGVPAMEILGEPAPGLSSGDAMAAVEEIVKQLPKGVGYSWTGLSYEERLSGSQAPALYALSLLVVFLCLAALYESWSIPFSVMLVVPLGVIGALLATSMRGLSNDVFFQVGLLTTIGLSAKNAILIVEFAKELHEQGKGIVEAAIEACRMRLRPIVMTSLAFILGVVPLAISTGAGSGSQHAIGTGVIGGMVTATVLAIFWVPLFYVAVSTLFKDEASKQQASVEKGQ

T2: MexAB_(D407N): MexA (palmitoylated) and the inactive MexB D407N mutant reconstituted together in biotinylated … (Pseudomonas aeruginosa, UniProt P52477 24-383; P52002 1-1046, D407N, palmitoylated (lipid anchor); residue not stated)
T2 construct: MexA, Pseudomonas aeruginosa, palmitoylated version; as m1; also called MexA and MexB_(D407N); source: reconstituted together in proteoliposomes with biotinylated lipids
T2 sequence (looked up) 1: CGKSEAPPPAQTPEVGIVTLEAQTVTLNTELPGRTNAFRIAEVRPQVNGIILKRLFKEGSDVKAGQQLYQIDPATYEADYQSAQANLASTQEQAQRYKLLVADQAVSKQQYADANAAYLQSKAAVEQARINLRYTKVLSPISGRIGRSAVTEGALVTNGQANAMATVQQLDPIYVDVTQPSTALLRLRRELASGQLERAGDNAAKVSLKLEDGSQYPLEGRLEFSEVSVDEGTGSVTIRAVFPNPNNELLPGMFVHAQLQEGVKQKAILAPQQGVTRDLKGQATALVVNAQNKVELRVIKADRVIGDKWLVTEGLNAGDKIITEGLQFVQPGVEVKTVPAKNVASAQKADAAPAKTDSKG
T2 sequence (looked up) 2: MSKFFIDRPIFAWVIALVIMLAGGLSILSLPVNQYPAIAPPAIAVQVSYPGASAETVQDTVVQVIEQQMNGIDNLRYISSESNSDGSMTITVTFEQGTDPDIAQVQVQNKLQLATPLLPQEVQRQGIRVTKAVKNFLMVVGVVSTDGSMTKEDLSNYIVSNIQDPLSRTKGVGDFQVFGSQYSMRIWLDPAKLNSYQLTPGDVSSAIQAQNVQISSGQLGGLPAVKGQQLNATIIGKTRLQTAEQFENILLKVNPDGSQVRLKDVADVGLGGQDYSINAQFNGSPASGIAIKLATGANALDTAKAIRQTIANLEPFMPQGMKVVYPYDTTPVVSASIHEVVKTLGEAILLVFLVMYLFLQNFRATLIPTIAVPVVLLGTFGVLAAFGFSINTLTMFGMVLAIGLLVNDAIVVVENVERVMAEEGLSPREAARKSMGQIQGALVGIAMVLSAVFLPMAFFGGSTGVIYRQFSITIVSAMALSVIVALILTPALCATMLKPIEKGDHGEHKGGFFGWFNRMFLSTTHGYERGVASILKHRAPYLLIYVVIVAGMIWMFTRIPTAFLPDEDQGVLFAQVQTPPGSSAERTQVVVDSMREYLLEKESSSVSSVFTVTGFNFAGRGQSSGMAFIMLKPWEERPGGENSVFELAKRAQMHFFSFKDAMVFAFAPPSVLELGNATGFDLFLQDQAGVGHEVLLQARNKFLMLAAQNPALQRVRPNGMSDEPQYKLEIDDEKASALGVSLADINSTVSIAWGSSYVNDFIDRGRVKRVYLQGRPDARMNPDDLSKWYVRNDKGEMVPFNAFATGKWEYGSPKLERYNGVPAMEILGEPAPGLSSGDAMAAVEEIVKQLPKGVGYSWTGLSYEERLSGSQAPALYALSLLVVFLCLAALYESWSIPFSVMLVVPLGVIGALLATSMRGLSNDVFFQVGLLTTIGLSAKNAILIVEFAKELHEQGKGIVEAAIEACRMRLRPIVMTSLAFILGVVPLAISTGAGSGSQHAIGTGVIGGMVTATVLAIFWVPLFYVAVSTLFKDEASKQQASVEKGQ

T3: MexAB: MexA (palmitoylated) and MexB reconstituted together in biotinylated proteoliposomes (Pseudomonas aeruginosa, UniProt P52477 24-383; P52002 1-1046, palmitoylated (lipid anchor); residue not stated)
T3 construct: MexA, Pseudomonas aeruginosa, palmitoylated version; as m1; MexB, Pseudomonas aeruginosa; as m3; also called MexAB proteoliposomes; MexA and MexB; source: each protein from C43 ΔAcrB strain, purified; reconstituted together in proteoliposomes with biotinylated lipids
T3 sequence 1: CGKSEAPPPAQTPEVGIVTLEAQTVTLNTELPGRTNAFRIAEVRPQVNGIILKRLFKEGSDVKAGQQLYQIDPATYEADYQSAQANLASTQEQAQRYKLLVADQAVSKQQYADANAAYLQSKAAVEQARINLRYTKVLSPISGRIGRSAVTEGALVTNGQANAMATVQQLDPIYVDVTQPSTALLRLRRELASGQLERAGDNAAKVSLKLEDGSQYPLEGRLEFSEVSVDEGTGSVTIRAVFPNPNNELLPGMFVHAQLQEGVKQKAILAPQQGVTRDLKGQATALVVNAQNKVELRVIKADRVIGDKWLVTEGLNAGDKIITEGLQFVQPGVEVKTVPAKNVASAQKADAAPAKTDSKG
T3 sequence 2: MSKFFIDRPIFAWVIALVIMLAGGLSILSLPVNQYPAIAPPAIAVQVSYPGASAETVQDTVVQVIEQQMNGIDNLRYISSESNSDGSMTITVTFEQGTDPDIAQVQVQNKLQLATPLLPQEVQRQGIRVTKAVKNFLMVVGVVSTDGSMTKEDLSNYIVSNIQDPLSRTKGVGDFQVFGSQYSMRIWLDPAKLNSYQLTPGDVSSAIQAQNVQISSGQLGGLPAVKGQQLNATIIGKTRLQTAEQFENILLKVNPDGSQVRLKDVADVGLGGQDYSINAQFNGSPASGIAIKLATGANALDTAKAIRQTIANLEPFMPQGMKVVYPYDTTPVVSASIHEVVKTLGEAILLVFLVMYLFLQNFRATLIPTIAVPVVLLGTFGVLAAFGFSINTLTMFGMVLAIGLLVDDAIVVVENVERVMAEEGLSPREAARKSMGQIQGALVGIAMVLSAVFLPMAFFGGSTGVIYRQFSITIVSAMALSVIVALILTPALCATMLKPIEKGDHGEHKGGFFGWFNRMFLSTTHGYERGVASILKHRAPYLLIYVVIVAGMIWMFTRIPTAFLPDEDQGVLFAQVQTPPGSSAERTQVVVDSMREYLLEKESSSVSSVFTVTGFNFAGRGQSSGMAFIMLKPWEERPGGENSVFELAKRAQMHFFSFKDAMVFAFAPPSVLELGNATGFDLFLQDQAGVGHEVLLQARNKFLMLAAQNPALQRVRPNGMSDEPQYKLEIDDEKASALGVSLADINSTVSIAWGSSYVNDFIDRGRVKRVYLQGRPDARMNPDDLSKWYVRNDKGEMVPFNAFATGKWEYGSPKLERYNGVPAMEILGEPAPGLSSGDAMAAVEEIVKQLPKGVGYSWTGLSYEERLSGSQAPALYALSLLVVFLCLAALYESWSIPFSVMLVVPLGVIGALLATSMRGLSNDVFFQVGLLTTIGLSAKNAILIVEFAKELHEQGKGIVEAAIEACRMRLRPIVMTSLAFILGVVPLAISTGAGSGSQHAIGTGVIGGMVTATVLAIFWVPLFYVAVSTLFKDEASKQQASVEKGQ


Tests used:
Assay in all cases: pull-down; MagStrep (streptavidin) magnetic beads sediment biotin-lipid proteoliposomes with MexB or MexAB; OprM in separate proteoliposomes; non-energized: 25 mM Hepes pH7, 100 mM K2SO4, 2 mM MgSO4; 20 min at room temperature; pellets on SDS-PAGE, Coomassie
Settings in all cases: both partners purified
MexB = biological target: T1, MexB
[1] = biological target: T2, MexAB_(D407N): MexA (palmitoylated) and …
[2] = biological target: T3, MexAB: MexA (palmitoylated) and MexB …

Row | Binder | binding result (MexB) | binding result [1] | binding result [2]
1 | MexAnp, truncated "cysteine-less" form of MexA without its first 24 residues (non-palmitoylated, soluble) (domain or fragment, MexA, Pseudomonas aeruginosa, without its first 24 residues; non-palmitoylated, soluble; no point mutation is printed; also called soluble version of MexA; soluble MexA; source: generated in the laboratory, produced and purified) GKSEAPPPAQTPEVGIVTLEAQTVTLNTELPGRTNAFRIAEVRPQVNGIILKRLFKEGSDVKAGQQLYQIDPATYEADYQSAQANLASTQEQAQRYKLLVADQAVSKQQYADANAAYLQSKAAVEQARINLRYTKVLSPISGRIGRSAVTEGALVTNGQANAMATVQQLDPIYVDVTQPSTALLRLRRELASGQLERAGDNAAKVSLKLEDGSQYPLEGRLEFSEVSVDEGTGSVTIRAVFPNPNNELLPGMFVHAQLQEGVKQKAILAPQQGVTRDLKGQATALVVNAQNKVELRVIKADRVIGDKWLVTEGLNAGDKIITEGLQFVQPGVEVKTVPAKNVASAQKADAAPAKTDSKG | binds | – | –
2 | OprM (natural protein, OprM, outer membrane channel of the MexA-MexB-OprM efflux pump, Pseudomonas aeruginosa; Purified by the protocol of Phan et al., 2010 with minor modifications; also called OMF; OprM proteoliposomes) CSLIPDYQRPEAPVAAAYPQGQAYGQNTGAAAVPAADIGWREFFRDPQLQQLIGVALENNRDLRVAALNVEAFRAQYRIQRADLFPRIGVDGSGTRQRLPGDLSTTGSPAISSQYGVTLGTTAWELDLFGRLRSLRDQALEQYLATEQAQRSAQTTLVASVATAYLTLKADQAQLQLTKDTLGTYQKSFDLTQRSYDVGVASALDLRQAQTAVEGARATLAQYTRLVAQDQNALVLLLGSGIPANLPQGLGLDQTLLTEVPAGLPSDLLQRRPDILEAEHQLMAANASIGAARAAFFPSISLTANAGTMSRQLSGLFDAGSGSWLFQPSINLPIFTAGSLRASLDYAKIQKDINVAQYEKAIQTAFQEVADGLAARGTFTEQLQAQRDLVKASDEYYQLADKRYRTGVDNYLTLLDAQRSLFTAQQQLITDRLNQLTSEVNLYKALGGGWNQQTVTQQQTAKKEDPQA | – | binds | binds
